Test results published in IntAct's records for PubMed 20360680.
Where a chain is given by its changes, count along the chain named.

B1: BICD family-like cargo adapter 1 (Mus musculus), A0JNT9 (parent)
chain: MSAFCLGLAGRASAPAEPDSACCMELPAGAGDAVRSPATAAALVSFPGGPGELELALEEELALLAAGERSSEPGEHPQAEPESPVEGHGPPLPPPPTQDPELLSVIRQKEKDLVLAARLGKALLERNQDMSRQYEQMHKELTDKLEHLEQEKHELRRRFENREGEWEGRVSELETDVKQLQDELERQQLHLREADREKTRAVQELSEQNQRLLDQLSRASEVERQLSMQVHALKEDFREKNSSTNQHIIRLESLQAEIKMLSDRKRELEHRLSATLEENDLLQGTVEELQDRVLILERQGHDKDLQLHQSQLELQEVRLSYRQLQGKVEELTEERSLQSSAATSTSLLSEIEQSMEAEELEQEREQLRLQLWEAYCQVRYLCSHLRGNDSADSAVSTDSSMDESSETSSAKDVPAGSLRTALNDLKRLIQSIVDGVEPTVTLLSVEMTALKEERDRLRVTSEDKEPKEQLQKAIRDRDEAIAKKNAVELELAKCKMDMMSLNSQLLDAIQQKLNLSQQLEAWQDDMHRVIDRQLMDTHLKEQSRPAAAAFPRGHGVGRGQEPSTADGKRLFSFFRKI
B2: Ras-related protein Rab-6A (Homo sapiens), P20340 (parent)
chain: MSTGGDFGNPLRKFKLVFLGEQSVGKTSLITRFMYDSFDNTYQATIGIDFLSKTMYLEDRTVRLQLWDTAGQERFRSLIPSYIRDSTVAVVVYDITNVNSFQQTTKWIDDVRTERGSDVIIMLVGNKTDLADKRQVSIEEGERKAKELNVMFIETSAKAGYNVKQLFRRVAAALPGMESTQDRSREDMIDIKLEKPQEQPVSEGGCSC
partner: B1 chain
B3: Ras-related protein Rab-6A (Mus musculus), P35279 (parent)
chain: B2 chain with T3A, S202N
B4: Protein bicaudal D homolog 2 (Mus musculus), Q921C5 (parent)
chain: MSAPSEEEEYARLVMEAQPEWLRAEVKRLSHELAETTREKIQAAEYGLAVLEEKHQLKLQFEELEVDYEAIRSEMEQLKEAFGQAHTNHKKVAADGESREESLIQESASKEQYYVRKVLELQTELKQLRNVLTNTQSENERLTSVAQELKEINQNVEIQRGRLRDDIKEYKFREARLLQDYSELEEENISLQKQVSVLRQNQVEFEGLKHEIKRLEEETEYLNSQLEDAIRLKEISERQLEEALETLKTEREQKNNLRKELSHYMSINDSFYTSHLQVSLDGLKFSDDTVTAEPNNDAEALVNGFEHSGLVKSSLDNKTSTPRKDGLAPPSPSLVSDLLSELHISEIQKLKQQLVQMEREKVGLLATLQDTQKQLEQARGTLSEQHEKVNRLTENLSALRRLQAGKERQTSLDNEKDRDSHEDGDYYEVDINGPEILACKYHVAVAEAGELREQLKALRSTHEAREAQHAEEKGRYEAEGQALTEKISLLEKASHQDRELLAHLEKELKKVSDVAGETQGSLNVAQDELVTFSEELANLYHHVCMCNNETPNRVMLDYYREGQGKAGRTSPEGRGRRSPVLLPKGLLATEVGRADGGTGDNSPSPSSSLPSPLSDPRREPMNIYNLIAIIRDQIKHLQAAVDRTTELSRQRIASQELGPAVDKDKEALMEEILKLKSLLSTKREQITTLRTVLKANKQTAEVALANLKSKYENEKAMVTETMMKLRNELKALKEDAATFSSLRAMFATRCDEYITQLDEMQRQLAAAEDEKKTLNSLLRMAIQQKLALTQRLELLELDHEQTRRGRSKAASKAKPASPSL
B5: Ras-related protein Rab-6A (Mus musculus), P35279 (parent)
chain: B2 chain with T3A, S202N
partner: B1 chain

Variants of: B1
Details: with rab6a_mouse Rab6a
Target sequence in this assay (P35279 whole entry): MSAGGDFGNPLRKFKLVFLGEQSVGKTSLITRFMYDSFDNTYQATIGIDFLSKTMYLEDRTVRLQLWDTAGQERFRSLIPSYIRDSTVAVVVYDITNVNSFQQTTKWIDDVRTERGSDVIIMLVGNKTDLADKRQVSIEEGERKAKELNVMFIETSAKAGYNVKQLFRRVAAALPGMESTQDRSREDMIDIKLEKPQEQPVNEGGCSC

Row | effect of a mutation on the interaction | Variant
1 | disrupting interaction | MSAFCLGLAGRASAPAEPDSACCMELPAGAGDAVRSPATAAALVSFPGGPGELELALEEELALLAAGERSSEPGEHPQAEPESPVEGHGPPLPPPPTQDPELLSVIRQKEKDLVLAARLGKALLERNQDMSRQYEQMHKELTDKLEHLEQEKHELRRRFENREGEWEGRVSELETDVKQLQDELERQQLHLREADREKTRAVQELSEQNQRLLDQLSRASEVERQLSMQVHALKEDFREKNSSTNQHIIRLESLQAEIKMLSDRKRELEHRLSATLEENDLLQGTVEELQDRVLILERQGHDKDLQLHQSQLELQEVRLSYRQLQGKVEELTEERSLQSSAATSTSLLSEIEQSMEAEELEQEREQLRLQLWEAYCQVRYLCSHLRGNDSADSAVSTDSSMDESSETSSAKDVPAGSLRTALNDLKRLIQSIVDGVEPTVTLLSVEMTALKEERDRLRVTSEDKEPKEQLQKAIRDRDEAIAKKNAVELELAKCKMDMMSLNSQLLDAIQQMLNLSQQLEAWQDDMHRVIDRQLMDTHLKEQSRPAAAAFPRGHGVGRGQEPSTADGKRLFSFFRKI [K512M]

Variants of: B1
Details: with rab6b_mouse Rab6b

Row | effect of a mutation on the interaction | Variant
2 | disrupting interaction | MSAFCLGLAGRASAPAEPDSACCMELPAGAGDAVRSPATAAALVSFPGGPGELELALEEELALLAAGERSSEPGEHPQAEPESPVEGHGPPLPPPPTQDPELLSVIRQKEKDLVLAARLGKALLERNQDMSRQYEQMHKELTDKLEHLEQEKHELRRRFENREGEWEGRVSELETDVKQLQDELERQQLHLREADREKTRAVQELSEQNQRLLDQLSRASEVERQLSMQVHALKEDFREKNSSTNQHIIRLESLQAEIKMLSDRKRELEHRLSATLEENDLLQGTVEELQDRVLILERQGHDKDLQLHQSQLELQEVRLSYRQLQGKVEELTEERSLQSSAATSTSLLSEIEQSMEAEELEQEREQLRLQLWEAYCQVRYLCSHLRGNDSADSAVSTDSSMDESSETSSAKDVPAGSLRTALNDLKRLIQSIVDGVEPTVTLLSVEMTALKEERDRLRVTSEDKEPKEQLQKAIRDRDEAIAKKNAVELELAKCKMDMMSLNSQLLDAIQQMLNLSQQLEAWQDDMHRVIDRQLMDTHLKEQSRPAAAAFPRGHGVGRGQEPSTADGKRLFSFFRKI [K512M]

Variants of: B2
Details: with bicl1_mouse Bicdl1, A0JNT9

Row | effect of a mutation on the interaction | Variant
3 | disrupting interaction | T27N

Variants of: B3
Details: with bicd2_mouse Bicd2, Q921C5

Row | effect of a mutation on the interaction | Variant
4 | disrupting interaction | T27N

Variants of: B4
Details: with rab6a_mouse Rab6a
Target sequence in this assay (P35279 whole entry): as the sequence (P35279 whole entry) above

Row | effect of a mutation on the interaction | Variant
5 | disrupting interaction | K785M

Variants of: B5
Details: with bicl1_mouse Bicdl1, A0JNT9

Row | effect of a mutation on the interaction | Variant
6 | increasing interaction | Q72R
